From publication PMC13623948, “Steric Gating Contributes to the Preferential Ubiquitin Charging of BIRC6 by UBA6 versus UBA1” (Nature Communications, 2026) come the findings set out here.

This test addresses T1, human UBA6 (full-length, amino acid residues 1-1052) (human, UniProt A0AVT1 1-1052).
T1 construct: UBA6, human, Uniprot entry A0AVT1, full-length, residues 1-1052; The cloning methods name only the N-terminal 3×FLAG tag; the BLI methods say that His-tagged ligands were captured on anti-Penta-His sensors; also called UBA6^WT
T1 sequence (looked up): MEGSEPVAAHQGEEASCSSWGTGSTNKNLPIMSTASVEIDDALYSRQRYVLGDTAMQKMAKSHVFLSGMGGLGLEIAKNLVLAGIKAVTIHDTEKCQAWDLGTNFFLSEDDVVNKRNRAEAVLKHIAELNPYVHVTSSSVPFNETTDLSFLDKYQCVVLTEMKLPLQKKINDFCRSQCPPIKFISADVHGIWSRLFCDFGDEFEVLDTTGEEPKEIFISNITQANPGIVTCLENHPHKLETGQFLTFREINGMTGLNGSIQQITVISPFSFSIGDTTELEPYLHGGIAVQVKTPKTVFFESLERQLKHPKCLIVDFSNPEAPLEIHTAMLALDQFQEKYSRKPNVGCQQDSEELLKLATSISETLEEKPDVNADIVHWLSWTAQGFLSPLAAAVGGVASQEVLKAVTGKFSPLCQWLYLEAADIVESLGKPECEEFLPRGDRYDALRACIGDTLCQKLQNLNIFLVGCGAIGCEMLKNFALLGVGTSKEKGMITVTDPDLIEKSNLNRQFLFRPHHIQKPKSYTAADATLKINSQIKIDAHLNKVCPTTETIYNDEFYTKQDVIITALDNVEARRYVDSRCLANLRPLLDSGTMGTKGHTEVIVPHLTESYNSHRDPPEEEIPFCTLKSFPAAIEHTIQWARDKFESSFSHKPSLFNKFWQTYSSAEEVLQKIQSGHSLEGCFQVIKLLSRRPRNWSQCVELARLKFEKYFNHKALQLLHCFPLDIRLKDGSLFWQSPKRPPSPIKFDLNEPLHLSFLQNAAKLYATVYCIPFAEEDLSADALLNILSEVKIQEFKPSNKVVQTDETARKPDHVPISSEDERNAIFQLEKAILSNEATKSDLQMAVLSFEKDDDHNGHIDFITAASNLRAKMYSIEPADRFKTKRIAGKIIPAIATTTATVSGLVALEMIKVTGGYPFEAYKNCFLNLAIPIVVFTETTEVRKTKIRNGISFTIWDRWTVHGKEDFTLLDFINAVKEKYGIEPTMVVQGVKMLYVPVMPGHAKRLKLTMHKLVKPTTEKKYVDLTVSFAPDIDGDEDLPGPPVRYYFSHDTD
Description: BLI; His-tagged E1 ligands on Anti-Penta-His (His1K) biosensors; analyte BIRC6^UBC or BIRC6^(UBCΔinsertion loop) at 40-3240 nM; 50 mM HEPES, pH 7.4, 150 mM NaCl, 0.05% Tween-20, 10 mM imidazole; 25 °C; steady-state 1:1 fit. Conditions: both partners purified. (In general: In BLI a coated tip is dipped into the sample, and binding shifts an interference pattern.)

B1: UBC domain of BIRC6 (residues 4520-4857) (domain or fragment)
chain: not shown
notes: BIRC6 UBC domain, human, Uniprot entry Q9NR09, residues 4520-4857; also called BIRC6^UBC; WT BIRC6^UBC; source: E. coli BL21 (DE3), purified (Ni-NTA, HRV 3C cleavage, SEC); not shown: His6, N-terminal, cleaved
In general, Kd refers to the concentration at which binding is half-saturated. Lower therefore signals a tighter complex. As to B1, binding was characterised by a dissociation constant (Kd) of 4.82 µM.
